Measurements taken from publication PMC3136172, “Stabilization of a G-Quadruplex from Unfolding by Replication Protein A Using Potassium and the Porphyrin TMPyP4”.

Legend:
[1] = biological target: RPA (full-length replication protein A) (human, UniProt P27694;P15927;P35244 1-616;1-270;1-121); assay: CD titration (G4 unfolding); 100 mM NaCl, 2 mM Mg2+; complete unfolding at RPA:DNA ratio 2; 25 mM Tris pH 7.5, 2 mM MgCl2, 0.5% inositol, 1 mM DTT, 100 mM NaCl or 100 mM KCl, 25 C; 1.4 uM DNA, protein:DNA ratio 0-5; conditions: protein: recombinant; copies: 1;1;1; intramolecular G4; mixed parallel/antiparallel in K+, antiparallel in Na+
Chain of RPA (full-length replication protein A) (P27694 whole entry, chain 1 of 3): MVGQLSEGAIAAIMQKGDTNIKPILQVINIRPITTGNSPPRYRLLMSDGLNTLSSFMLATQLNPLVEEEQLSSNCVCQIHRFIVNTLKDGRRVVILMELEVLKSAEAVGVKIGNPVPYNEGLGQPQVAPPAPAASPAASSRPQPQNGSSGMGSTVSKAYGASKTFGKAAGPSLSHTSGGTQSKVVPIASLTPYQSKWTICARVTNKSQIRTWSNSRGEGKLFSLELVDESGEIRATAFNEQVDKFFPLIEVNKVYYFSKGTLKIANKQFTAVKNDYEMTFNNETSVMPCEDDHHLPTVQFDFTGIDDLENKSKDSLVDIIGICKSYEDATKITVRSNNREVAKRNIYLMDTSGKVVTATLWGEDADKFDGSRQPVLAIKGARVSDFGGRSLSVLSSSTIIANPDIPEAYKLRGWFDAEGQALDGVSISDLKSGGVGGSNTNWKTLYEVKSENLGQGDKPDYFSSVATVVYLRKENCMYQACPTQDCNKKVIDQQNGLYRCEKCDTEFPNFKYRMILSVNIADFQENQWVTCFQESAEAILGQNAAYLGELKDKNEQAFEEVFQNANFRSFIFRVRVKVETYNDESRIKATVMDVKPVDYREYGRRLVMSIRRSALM
Chain of RPA (full-length replication protein A) (P15927 whole entry, chain 2 of 3): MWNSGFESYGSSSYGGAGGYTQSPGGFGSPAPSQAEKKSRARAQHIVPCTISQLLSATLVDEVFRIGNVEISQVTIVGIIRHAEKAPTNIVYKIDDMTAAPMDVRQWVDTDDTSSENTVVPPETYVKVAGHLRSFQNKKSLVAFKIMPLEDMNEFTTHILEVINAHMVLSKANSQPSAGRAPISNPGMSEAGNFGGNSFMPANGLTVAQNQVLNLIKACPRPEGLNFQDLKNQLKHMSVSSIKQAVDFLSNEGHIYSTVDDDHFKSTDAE
Chain of RPA (full-length replication protein A) (P35244 whole entry, chain 3 of 3): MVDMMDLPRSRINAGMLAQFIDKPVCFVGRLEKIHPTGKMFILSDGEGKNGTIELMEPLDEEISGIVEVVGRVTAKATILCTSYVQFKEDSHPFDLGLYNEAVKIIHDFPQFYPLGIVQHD

RPA-CDE-core = RPA-CDE-core (UniProt P27694;P15927;P35244 436-616;45-171;1-121); assay: CD titration (G4 unfolding); 100 mM NaCl, 2 mM Mg2+; efficient unfolding, less than RPA; 25 mM Tris pH 7.5, 2 mM MgCl2, 0.5% inositol, 1 mM DTT, 100 mM NaCl or 100 mM KCl, 25 C; 1.4 uM DNA, protein:DNA ratio 0-5; conditions: protein: recombinant; tags: N-terminal His-tag, thrombin-cleaved; copies: 1;1;1; intramolecular G4; mixed parallel/antiparallel in K+, antiparallel in Na+
Chain of RPA-CDE-core (P27694 436-616, chain 1 of 3): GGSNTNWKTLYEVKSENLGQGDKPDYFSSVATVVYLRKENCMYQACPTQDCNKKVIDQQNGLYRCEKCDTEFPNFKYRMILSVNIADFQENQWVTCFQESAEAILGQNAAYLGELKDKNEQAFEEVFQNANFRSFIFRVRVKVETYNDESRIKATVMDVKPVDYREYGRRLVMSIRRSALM
Chain of RPA-CDE-core (P15927 45-171, chain 2 of 3): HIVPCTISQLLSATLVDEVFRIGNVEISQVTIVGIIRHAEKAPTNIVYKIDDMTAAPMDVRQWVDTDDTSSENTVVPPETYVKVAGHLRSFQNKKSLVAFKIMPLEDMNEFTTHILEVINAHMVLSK
Chain of RPA-CDE-core (P35244 whole entry, chain 3 of 3): as the sequence (P35244 whole entry, chain 3 of 3) above

TAGGGGAAGGGTTGGAGTGGGTT (structured_DNA) [Gq23]
binding result [1]: binds | binding result (RPA-CDE-core): binds
